{
  "source": "patent US11535824B2",
  "about": "“Nuclear transfer” (Sung Kwang Medical Foundation, priority 2015, dated 2022)",
  "molecules": {"B1": {"name": "coactivator-associated arginine methyltransferase 1 (protein, UniProt Q86X55 2-608, looked up)", "Histone-arginine …": "AAAAAAVGPGAGGAGSAVPGGAGPCATVSVFPGARLLTIGDANGEIQRHAEQQALRLEVRAGPDSAGIALYSHEDVCVFKCSVSRETECSRVGKQSFIITLGCNSVLIQFATPNDFCSFYNILKTCRGHTLERSVFSERTEESSAVQYFQFYGYLSQQQNMMQDYVRTGTYQRAILQNHTDFKDKIVLDVGCGSGILSFFAAQAGARKIYAVEASTMAQHAEVLVKSNNLTDRIVVIPGKVEEVSLPEQVDIIISEPMGYMLFNERMLESYLHAKKYLKPSGNMFPTIGDVHLAPFTDEQLYMEQFTKANFWYQPSFHGVDLSALRGAAVDEYFRQPVVDTFDIRILMAKSVKYTVNFLEAKEGDLHRIEIPFKFHMLHSGLVHGLAFWFDVAFIGSIMTVWLSTAPTEPLTHWYQVRCLFQSPLFAKAGDTLSGTCLLIANKRQSYDISIVAQVDQTGSKSSNLLDLKNPFFRYTGTTPSPPPGSHYTSPSENMWNTGSTYNLSSGMAVAGMPTAYDLSSVIASGSSVGHNNLIPLANTGIVNHTHSRMGSIMSTGIVQGSSGAQGSGGGSTSAHYAVNSQFTMGGPAISMASPMSIPTNTMHYGS", "notes": "member of the protein arginine methyltransferase (PRMT) family"}},
  "key": {"[1]": {"test_system": "H4R3", "conditions": "cited from earlier work"}, "[2]": {"test_system": "SCNT-generated embryos", "conditions": "cited from earlier work"}, "[3]": {"test_system": "primary human fibroblasts", "conditions": "without MYC or KLF4; cited from earlier work"}, "[4]": {"test_system": "cancer models", "conditions": "variety of in vitro and in vivo cancer models; cited from earlier work"}, "[5]": {"test_system": "adult stem cells", "conditions": "cited from earlier work"}, "[6]": {"test_system": "mouse embryos obtained from SCNT", "experiment": "CPP-CARM1 protein treatment of 8-cell SCNT embryos; development to blastocyst", "format": "cell-based", "conditions": "for % of developed to BLs: calculated from 2 cell cleavaged embryos", "method": "The above preliminary results were extended in further studies utilizing protein treatment. SCNT oocytes were cultured with protein of CARM1 on third day after formation of fertilized embryo to investigate the influence on the development rate into blastocyst. Specifically, mouse embryos obtained from SCNT were cultured to 8-cell stage in embryo culture medium (potassium simplex-optimized medium, KSOM; Millipore, Danvers, Mass.) containing 10% SPS (Sage, Trumbull, Conn.). And then, 8-cell embryos were cultured at 37° C. and 5% CO2 for 48 h in embryo culture medium with 2 μg/ml CPP-CARM1 recombinant protein or DsRed protein (control—non-functional protein) under mineral oil (Sage). Embryonic development was monitored for a further 2 days. CARM1 or DsRed cDNA was inserted into a pET vector to construct an expression plasmid for CARM1 conjugated to 7× arginine (a cell-penetrating peptide (CPP) domain) and a 6×His-tag. The CPP-CARM1 protein expression vector was transformed into BL21 (DE3) pLysS-competent cells (Stratagene Inc., La Jolla, Calif.). Transformed cells were cultured and induced by 1 mM isopropyl-1-thio-β-D-galactopyranoside (IPTG) for 8 h at 20° C. to produce the CPP-CARM1 or DsRed proteins."}},
  "data": [
    {"molecule": "Nc1ccc(S(=O)(=O)c2ccc(NCN3C(=O)NC(=O)C(=O)C3=O)cc2)cc1", "note": "[allantodapsone]", "values": [
      {"measurement": "methylation at H4R3", "setting": "[1]", "value": "hypomethylation"}
    ]},
    {"molecule": "CC(/C=C/C(=O)NO)=C\\[C@@H](C)C(=O)c1ccc(N(C)C)cc1", "note": "[trichostatin A]", "values": [
      {"measurement": "chromosome decondensation and nuclear volume", "setting": "[2]; SCNT-generated embryos", "value": "increase"},
      {"measurement": "cloning efficiency", "setting": "[2]; additive in nuclear transfer", "value": "improve cloning efficiency"}
    ]},
    {"molecule": "CCCC(CCC)C(=O)O", "note": "[Valproic acid]", "values": [
      {"measurement": "reprogramming with two factors, OCT4 and SOX2", "setting": "[3]", "value": "enables the reprogramming"}
    ]},
    {"molecule": "CC[C@H](C)n1cc(C)c2c(C(=O)NCc3c(C)cc(C)[nH]c3=O)cc(-c3ccc(N4CCNCC4)nc3)cc21", "note": "[GSK126]", "values": [
      {"measurement": "anticancer chemotherapeutic activity", "setting": "[4]", "value": "exhibit anticancer chemotherapeutic activity"}
    ]},
    {"molecule": "CC(C)N(C[C@H]1O[C@@H](n2cnc3c(N)ncnc32)[C@H](O)[C@@H]1O)[C@H]1C[C@@H](CCc2nc3cc(C(C)(C)C)ccc3[nH]2)C1", "note": "[EPZ5676]", "values": [
      {"measurement": "anticancer chemotherapeutic activity", "setting": "[4]", "value": "exhibit anticancer chemotherapeutic activity"}
    ]},
    {"molecule": "Cc1cc(C)c(CNC(=O)c2cc(-c3ccc(CN4CCOCC4)cc3)cc3c2cnn3C2CCCC2)c(=O)[nH]1", "note": "[EPZ005687]", "values": [
      {"measurement": "anticancer chemotherapeutic activity", "setting": "[4]", "value": "exhibit anticancer chemotherapeutic activity"}
    ]},
    {"molecule": "B1", "values": [
      {"measurement": "expression of Oct-4, Sox-2 and nanog", "setting": "[5]", "value": "upregulated"},
      {"measurement": "No. of developed to BLs", "setting": "[6]; Total of three experiments", "value": 26},
      {"measurement": "% of developed to BLs", "setting": "[6]; Total of three experiments", "value": "(38.2) %"},
      {"measurement": "% of developed to BLs", "setting": "[6]; experiment 1", "value": "(46.2) %"},
      {"measurement": "No. of developed to BLs", "setting": "[6]; experiment 1, treatment D 3, cumulus donor cell, KSOM", "value": 12},
      {"measurement": "% of developed to BLs", "setting": "[6]; experiment 2", "value": "(40) %"},
      {"measurement": "No. of developed to BLs", "setting": "[6]; experiment 2, treatment D 3, cumulus donor cell, KSOM", "value": 10},
      {"measurement": "% of developed to BLs", "setting": "[6]; experiment 3", "value": "(23.5) %"},
      {"measurement": "No. of developed to BLs", "setting": "[6]; experiment 3, treatment D 3, cumulus donor cell, KSOM", "value": 4}
    ]}
  ]
}
